This note sets out measurements from the RNAGym collection of RNA variant scans (doi:10.1073/pnas.2313332121).

This sample holds only a part of the variants without activity.

B1: TPR 5TU (parent)
chain: GGAUCUUCUCGAUCUAACAAAAAAGACAAAUCUGCCACAAAGCUUGAGAGCAUCUUCGGAUGCAGAGGCGGCAGCCUUCGGUGGCGCGAUAGCGCCAACGUUCUCAACUAUGACACGCAAAACGCGUGCUCCGUUGAAUGGAGUUUAUCAUG

The series covers variants of B1. As to the kind of experiment: polymerase ribozyme fitness, log enrichment relative to wild type (log ratio); higher = more active; in vitro selection for triplet polymerase activity. A digest of the protocol:
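Genotype fitness is the logarithm of its enrichment divided by wild-type enrichment, using inverse-variance-weighted averages of replicates. That logarithm is base 2. Enrichment was measured by Illumina sequencing of input and output libraries from one triplicate in vitro selection round, with frozen incubation at −7 °C, on PCR-built, transcribed mutant libraries of each subunit of a heterodimeric triplet polymerase ribozyme, retaining genotypes with ≥10 input reads and ≥1 read per output.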
In the case of A24C G42C G92U C125G, the “polymerase ribozyme fitness (log ratio)” value is no more than -4.2.

Regarding C35U U61A A66C C69U, the “polymerase ribozyme fitness (log ratio)” value is no more than -4.2.

Turning to A23G A41U C76G G80A A89U G124U, the “polymerase ribozyme fitness (log ratio)” value was no more than -4.2.

Consider G68C C93G, for which the “polymerase ribozyme fitness (log ratio)” value is no more than -4.2.

Take U6G A120G: the “polymerase ribozyme fitness (log ratio)” value is -0.399.

For the variant A52C C85A A121G, the “polymerase ribozyme fitness (log ratio)” value was -1.8.

As to C85U A89U A119C, the “polymerase ribozyme fitness (log ratio)” value was -0.895.

Consider U4C C14U U15A A41C C93A C95U, for which the “polymerase ribozyme fitness (log ratio)” value is no more than -4.2.

Consider A20C C36U C85G C103G, for which the “polymerase ribozyme fitness (log ratio)” value is no more than -4.2.

For C57U C87U C116U C118U A119C G136A, the “polymerase ribozyme fitness (log ratio)” value was found to be 0.419.

As to U56A C95U A98C, the “polymerase ribozyme fitness (log ratio)” value was -0.392.

For the variant A23C C43U U53G G81C C87A G143A, the “polymerase ribozyme fitness (log ratio)” value was no more than -4.2.

Turning to A12C G81A G92C C99U G124C G133U, the “polymerase ribozyme fitness (log ratio)” value is no more than -4.2.

In the case of A17C G133A U144A A147C, the “polymerase ribozyme fitness (log ratio)” value is -3.99.

As to A37C C105U, the “polymerase ribozyme fitness (log ratio)” value is -0.652.

Regarding A20C G94A G136U, the “polymerase ribozyme fitness (log ratio)” value is -3.83.

For U4C C5A C87A A91G U145A, the “polymerase ribozyme fitness (log ratio)” value was no more than -4.2.

For A49G C85G C93U, the “polymerase ribozyme fitness (log ratio)” value was no more than -4.2.

Turning to A22G G59A, the “polymerase ribozyme fitness (log ratio)” value is -0.246.

C10A U31G C35G G42C C69U G92A C95G G100A G143A: the “polymerase ribozyme fitness (log ratio)” value is -3.74.

In the case of U6A U55G, the “polymerase ribozyme fitness (log ratio)” value was -0.118.

As for A47G C87A G126A, the “polymerase ribozyme fitness (log ratio)” value was no more than -4.2.

As for G81C G86A, the “polymerase ribozyme fitness (log ratio)” value is -1.83.

For U15A G50U G86A C114U, the “polymerase ribozyme fitness (log ratio)” value was -3.13.

Regarding A40C G50U U148A, the “polymerase ribozyme fitness (log ratio)” value was no more than -4.2.

For the variant U102G G124C G133A A137G G143U, the “polymerase ribozyme fitness (log ratio)” value is no more than -4.2.

As to G11A A24G A41U C51A G59A G80A G84U U90A, the “polymerase ribozyme fitness (log ratio)” value is no more than -4.2.

C87U G117A: the “polymerase ribozyme fitness (log ratio)” value is -0.356.

Turning to A47C U134G G136A, the “polymerase ribozyme fitness (log ratio)” value is -0.632.

For C76A A122G, the “polymerase ribozyme fitness (log ratio)” value was -0.466.

Consider C43U G50C C75G C79G G84A, for which the “polymerase ribozyme fitness (log ratio)” value is no more than -4.2.

For the variant A52G C125U, the “polymerase ribozyme fitness (log ratio)” value is -0.198.

As to U55A G124U, the “polymerase ribozyme fitness (log ratio)” value was -2.

Take A17G G70A C85G: the “polymerase ribozyme fitness (log ratio)” value is no more than -4.2.

In the case of C18A G141C, the “polymerase ribozyme fitness (log ratio)” value was -0.603.

Turning to U82C C114U, the “polymerase ribozyme fitness (log ratio)” value is -1.99.

A22U G34A G74U G94A A119C G143A: the “polymerase ribozyme fitness (log ratio)” value is no more than -4.2.

Take U61A G92U: the “polymerase ribozyme fitness (log ratio)” value is -3.41.

As for A21U C72U A122U, the “polymerase ribozyme fitness (log ratio)” value is -0.472.

On to A22U A37G A49C G62U C75G C76A G81U C85G G128C, for which the “polymerase ribozyme fitness (log ratio)” value is no more than -4.2.

For the variant G34A G48C G59A U102G C114A G143U A147G, the “polymerase ribozyme fitness (log ratio)” value was no more than -4.2.

Regarding C85U U134C U144A C149A, the “polymerase ribozyme fitness (log ratio)” value was -4.1.

In the case of G59A C79U, the “polymerase ribozyme fitness (log ratio)” value was -3.86.

Take C57A C76U: the “polymerase ribozyme fitness (log ratio)” value was 0.264.

With G50C C75U C93G A115G, the “polymerase ribozyme fitness (log ratio)” value was no more than -4.2.

Regarding U61A A137C G140A, the “polymerase ribozyme fitness (log ratio)” value is -4.19.

Regarding C76A C79U C96A U139A, the “polymerase ribozyme fitness (log ratio)” value is no more than -4.2.

Consider C63U G141U, for which the “polymerase ribozyme fitness (log ratio)” value is 1.25.

C14A C54A: the “polymerase ribozyme fitness (log ratio)” value was -3.55.

Consider A29U A66U C96U, for which the “polymerase ribozyme fitness (log ratio)” value was no more than -4.2.

Turning to C5A A49U C57A, the “polymerase ribozyme fitness (log ratio)” value was -0.832.

For the variant G88A A91C, the “polymerase ribozyme fitness (log ratio)” value is no more than -4.2.

For A23C C95U, the “polymerase ribozyme fitness (log ratio)” value is -4.12.

On to C14G A17G C27U C96G A122G G141C, for which the “polymerase ribozyme fitness (log ratio)” value is no more than -4.2.

With U9C A26G U55A A122U, the “polymerase ribozyme fitness (log ratio)” value is no more than -4.2.

A16G G86A: the “polymerase ribozyme fitness (log ratio)” value was -0.891.

Take A39U C69U C75U G84U U127G: the “polymerase ribozyme fitness (log ratio)” value is no more than -4.2.

In the case of C69U G126A, the “polymerase ribozyme fitness (log ratio)” value was 0.958.

Regarding U101G A115U G117U A150C, the “polymerase ribozyme fitness (log ratio)” value is no more than -4.2.

Regarding A3C C43U A89U G92A C125G, the “polymerase ribozyme fitness (log ratio)” value is no more than -4.2.

On to A49U U53A G86A C87A A89G C114U, for which the “polymerase ribozyme fitness (log ratio)” value was no more than -4.2.

On to A21U G25C A29U U33A A37U A66C G70C G88U G124U, for which the “polymerase ribozyme fitness (log ratio)” value is no more than -4.2.

For A22U C36A G83A U145A, the “polymerase ribozyme fitness (log ratio)” value was no more than -4.2.

Turning to U9G C85A, the “polymerase ribozyme fitness (log ratio)” value was -3.76.

Consider U53A C54A A147C, for which the “polymerase ribozyme fitness (log ratio)” value is -2.75.

On to A12G A98U, for which the “polymerase ribozyme fitness (log ratio)” value is -0.71.

For C93U C99G, the “polymerase ribozyme fitness (log ratio)” value is -1.97.

Take C85G C96U C116A A137C: the “polymerase ribozyme fitness (log ratio)” value is no more than -4.2.

Consider U31G A40C G42A G50A C54U C72U G94U, for which the “polymerase ribozyme fitness (log ratio)” value is no more than -4.2.

On to C57G G92U, for which the “polymerase ribozyme fitness (log ratio)” value is -0.526.

Regarding A37G A39C C87A C116U G136A, the “polymerase ribozyme fitness (log ratio)” value was no more than -4.2.

In the case of A23G G59U C95U, the “polymerase ribozyme fitness (log ratio)” value is -3.41.

Turning to A17U C57U G136A, the “polymerase ribozyme fitness (log ratio)” value is 0.435.

Consider A52G C108U, for which the “polymerase ribozyme fitness (log ratio)” value is -2.1.

With A41C U53A U56A A66C C79G G84U, the “polymerase ribozyme fitness (log ratio)” value was no more than -4.2.

With C116U C118A U139G, the “polymerase ribozyme fitness (log ratio)” value stood at 0.554.

For the variant G84U U102C C149G, the “polymerase ribozyme fitness (log ratio)” value is no more than -4.2.

Take G50U G83U C85G: the “polymerase ribozyme fitness (log ratio)” value was -4.13.

In the case of A19C A22G U31G C38U A107U G117A, the “polymerase ribozyme fitness (log ratio)” value was -4.16.

Take A24U C93A G112A C114U C116G A119G: the “polymerase ribozyme fitness (log ratio)” value was no more than -4.2.

As for U6G A21U G94A U104G U127A, the “polymerase ribozyme fitness (log ratio)” value was no more than -4.2.

Consider C63U C103G U146G, for which the “polymerase ribozyme fitness (log ratio)” value is -2.3.

Regarding U7G A40G A52C G65U A73G U82A C93G U134A U148G, the “polymerase ribozyme fitness (log ratio)” value is no more than -4.2.

Take A19C A22U C35A A106G: the “polymerase ribozyme fitness (log ratio)” value is -3.28.
